Experimental findings from paper PMC10253835, “Plakophilin-3 Binds the Membrane and Filamentous Actin without Bundling F-Actin” (International Journal of Molecular Sciences, 2023) are described below.

This data set concerns the molecule itself. Kind of data set: SEC; purified plakophilin-3 on Superdex S-200 10/300; methods give 20 mM Tris pH 7.5, 150 mM NaCl, 1 mM dithiothreitol; dimer and monomer peaks pooled and reloaded; more dimer at higher concentration and lower reducing conditions, mainly monomer with dithiothreitol or TCEP. In general terms: In gel filtration, larger molecules generally elute earlier.

B1: plakophilin-3 (residues 305-797) (domain or fragment, human, UniProt Q9Y446 305-797, looked up)
chain: SHRTLQRLSSGFDDIDLPSAVKYLMASDPNLQVLGAAYIQHKCYSDAAAKKQARSLQAVPRLVKLFNHANQEVQRHATGAMRNLIYDNADNKLALVEENGIFELLRTLREQDDELRKNVTGILWNLSSSDHLKDRLARDTLEQLTDLVLSPLSGAGGPPLIQQNASEAEIFYNATGFLRNLSSASQATRQKMRECHGLVDALVTSINHALDAGKCEDKSVENAVCVLRNLSYRLYDEMPPSALQRLEGRGRRDLAGAPPGEVVGCFTPQSRRLRELPLAADALTFAEVSKDPKGLEWLWSPQIVGLYNRLLQRCELNRHTTEAAAGALQNITAGDRRWAGVLSRLALEQERILNPLLDRVRTADHHQLRSLTGLIRNLSRNARNKDEMSTKVVSHLIEKLPGSVGEKSPPAEVLVNIIAVLNNLVVASPIAARDLLYFDGLRKLIFIKKKRDSPDSEKSSRAASSLLANLWQYNKLHRDFRAKGYRKEDFLGP
notes: pET28 construct with eight histidines followed by an HRV-3C site at the amino terminus; no cleavage step is described; The protein is found as monomer and as homodimer; also called armadillo repeat motif domain of plakophilin-3; Pkp3; source: E. coli BL21(DE3) Rosetta2, purified (Ni-nitriloacetic acid column, Superdex S-200 size exclusion)
Turning to B1, the “stoichiometry N” value is 2.

One may read the stoichiometry N as a count of units in the complex or per binding partner.
